Laboratory results from patent publication US20020119153A1 (University of Texas, published 2002).

B1: monoclonal antibody 2C3 (ATCC PTA 1595) (antibody, V domains shown)
VH: QVQLQESGPELVKPGASVKMSCKASGYTFTSYVFHWVKQKPGQGLEWIGYINPYNDVTKYNEKFKGKATLTSDKSSSTAYMELSSLTSEDSAVYYCASYYGSSYGYYAMDDWGQGTTVTVSS
VL: DIQLTQSPASLSVSAGEKVTMSCKSSQSLLNSGNQKNYLAWYQQKPGQPPKLLIHGASTRESGVPDRFTGSGSGTDFTLTISSVQAEDLAVYYCQNDYSYPLTFGAGTKLELKR
notes: also called 2C3 IgG
B2: 2C3-GUS conjugate (other)
VH: KLQVQLQESGPELVKPGASVKMSCKASGYTFTSYVFHWVKQKPGQGLEWIGYINPYNDVTKYNEKFKGKATLTSDKSSSTAYMELSSLTSEDSAVYYCASYYGSSYGYYAMDDWGQGTTVTVSSGGG
VL: DIQLTQSPASLSVSAGEKVTMSCKSSQSLLNSGNQKNYLAWYQQKPGQPPKLLIHGASTRESGVPDRFTGSGSGTDFTLTISSVQAEDLAVYYCQNDYSYPLTFGAGTKLELKRL
chain: MLRPVETPTREIKKLDGLWAFSLDRENCGIDQRWWESALQESRAIAVPGSFNDQFADADIRNYAGNVWYQREVFIPKGWAGQRIVLRFDAVTHYGKVWVNNQEVMEHQGGYTPFEADVTPYVIAGKSVRITVCVNNELNWQTIPPGMVITDENGKKKQSYFHDFFNYAGIHRSVMLYTTPNTWVDDITVVTHVAQDCNHASVDWQVVANGDVSVELRDADQQVVATGQGTSGTLQVVNPHLWQPGEGYLYELCVTAKSQTECDIYPLRVGIRSVAVKGEQFLINHKPFYFTGFGRHEDADLRGKGFDNVLMVHDHALMDWIGANSYRTSHYPYAEEMLDWADEHGIVVIDETAAVGFNLSLGIGFEAGNKPKELYSEEAVNGETQQAHLQAIKELIARDKNHPSVVMWSIANEPDTRPQGAREYFAPLAEATRKLDPTRPITCVNVMFCDAHTDTISDLFDVLCLNRYYGWYVQSGDLETAEKVLEKELLAWQEKLHQPIIITEYGVDTLAGLHSMYTDMWSEEYQCAWLDMYHRVFDRVSAVVGEQVWNFADFATSQGILRVGGNKKGIFTRDRKPKSAAFLLQKRWTGMNFGEKPQQGGKQ
modifications: SATA-modified, deacetylated; SMCC-modified IgG, linked by thioether to SATA-modified GUS
notes: Chemical conjugate of 2C3 IgG (mouse IgG2a,k) and 6-His GUS; GUS runs as a tetramer of about 300 kDa on gel filtration; not shown: N-terminal 6x histidine tag encoded by vector H6pQE60

Experiments:
[1] = target: T1, recombinant human VEGF165 (human, UniProt P15692 27-191); test: capture ELISA: biotinylated VEGF titrated onto wells coated with the antibody, peroxidase-avidin; concentration giving 50% maximal binding
T1 construct: mature; Secreted VEGF is described as an obligate dimer; also called free VEGF; VEGF-biotin

[2] = target: T1, recombinant human VEGF165; test: printed as 'Affinity'; estimated by ELISA and surface plasmon resonance analysis
VEGF:sFlk-1 complex = target: T2, VEGF:sFlk-1 complex (human; mouse, UniProt P15692 27-191; P35918 20-762, limits assumed, biotinylated); test: capture ELISA: biotinylated sFlk-1 complexed with VEGF titrated onto wells coated with the antibody; concentration giving 50% maximal binding
T2 construct: mature;extracellular domain; also called VEGF:receptor complex
T2 sequence (P35918 20-762 limits assumed, one chain of several): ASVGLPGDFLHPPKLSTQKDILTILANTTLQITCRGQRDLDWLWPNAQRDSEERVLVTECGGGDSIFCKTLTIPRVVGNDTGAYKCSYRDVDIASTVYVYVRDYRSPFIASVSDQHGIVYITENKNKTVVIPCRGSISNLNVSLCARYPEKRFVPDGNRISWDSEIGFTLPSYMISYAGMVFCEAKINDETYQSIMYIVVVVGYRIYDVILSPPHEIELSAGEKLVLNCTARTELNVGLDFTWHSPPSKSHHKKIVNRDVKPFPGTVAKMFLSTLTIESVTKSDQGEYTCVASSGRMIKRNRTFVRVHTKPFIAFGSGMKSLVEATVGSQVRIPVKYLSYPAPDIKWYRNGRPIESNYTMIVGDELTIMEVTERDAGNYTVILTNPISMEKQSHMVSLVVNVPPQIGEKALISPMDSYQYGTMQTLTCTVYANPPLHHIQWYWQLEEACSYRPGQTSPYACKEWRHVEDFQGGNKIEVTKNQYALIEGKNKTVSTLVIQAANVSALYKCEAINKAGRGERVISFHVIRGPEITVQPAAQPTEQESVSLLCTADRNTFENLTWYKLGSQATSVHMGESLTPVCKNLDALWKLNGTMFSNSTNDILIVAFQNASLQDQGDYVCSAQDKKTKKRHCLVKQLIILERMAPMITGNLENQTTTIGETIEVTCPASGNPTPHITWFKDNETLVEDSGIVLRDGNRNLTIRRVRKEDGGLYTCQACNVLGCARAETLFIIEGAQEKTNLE

mouse VEGF = target: T3, mouse VEGF (mouse, UniProt Q00731-2 27-190, limits assumed); test: indirect ELISA
T3 construct: In indirect ELISA (source not described) and in mouse 3LL tumor sections
T3 sequence (looked up): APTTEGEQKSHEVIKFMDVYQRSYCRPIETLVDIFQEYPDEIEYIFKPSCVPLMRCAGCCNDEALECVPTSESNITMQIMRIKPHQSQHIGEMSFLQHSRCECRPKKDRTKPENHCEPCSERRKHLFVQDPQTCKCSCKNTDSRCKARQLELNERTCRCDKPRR

[3] = target: T1, recombinant human VEGF165; test: ELISA on VEGF coated wells, HRP-labelled anti-mouse IgG and OPD

Row | Binder | EC50 [1] [nM] | Kd [2] [nM] | EC50 (VEGF:sFlk-1 complex) [nM] | binding result (mouse VEGF) | EC50 [3] [nM]
1 | B1 | 1 | 1 | 150 | no binding | –
2 | B2 | – | – | – | – | 0.1
